B1: Coronatine-insensitive protein 1 (Arabidopsis thaliana (Mouse-ear cress)), O04197 (parent)
chain: MEDPDIKRCKLSCVATVDDVIEQVMTYITDPKDRDSASLVCRRWFKIDSETREHVTMALCYTATPDRLSRRFPNLRSLKLKGKPRAAMFNLIPENWGGYVTPWVTEISNNLRQLKSVHFRRMIVSDLDLDRLAKARADDLETLKLDKCSGFTTDGLLSIVTHCRKIKTLLMEESSFSEKDGKWLHELAQHNTSLEVLNFYMTEFAKISPKDLETIARNCRSLVSVKVGDFEILELVGFFKAAANLEEFCGGSLNEDIGMPEKYMNLVFPRKLCRLGLSYMGPNEMPILFPFAAQIRKLDLLYALLETEDHCTLIQKCPNLEVLETRNVIGDRGLEVLAQYCKQLKRLRIERGADEQGMEDEEGLVSQRGLIALAQGCQELEYMAVYVSDITNESLESIGTYLKNLCDFRLVLLDREERITDLPLDNGVRSLLIGCKKLRRFAFYLRQGGLTDLGLSYIGQYSPNVRWMLLGYVGESDEGLMEFSRGCPNLQKLEMRGCCFSERAIAAAVTKLPSLRYLWVQGYRASMTGQDLMQMARPYWNIELIPSRRVPEVNQQGEIREMEHPAHILAYYSLAGQRTDCPTTVRVLKEPI
partner: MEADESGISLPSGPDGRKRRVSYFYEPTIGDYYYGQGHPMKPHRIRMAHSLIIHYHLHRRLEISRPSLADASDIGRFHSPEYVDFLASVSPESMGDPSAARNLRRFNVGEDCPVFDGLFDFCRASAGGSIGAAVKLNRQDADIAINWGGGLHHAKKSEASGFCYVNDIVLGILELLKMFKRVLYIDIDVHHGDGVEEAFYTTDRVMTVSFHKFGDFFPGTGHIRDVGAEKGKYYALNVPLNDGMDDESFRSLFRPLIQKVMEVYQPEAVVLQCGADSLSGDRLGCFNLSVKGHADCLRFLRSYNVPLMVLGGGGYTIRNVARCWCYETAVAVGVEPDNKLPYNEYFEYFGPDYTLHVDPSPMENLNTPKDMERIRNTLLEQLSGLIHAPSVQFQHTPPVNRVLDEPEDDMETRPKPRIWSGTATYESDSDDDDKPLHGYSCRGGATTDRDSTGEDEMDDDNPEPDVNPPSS
B2: Coronatine-insensitive protein 1 (Arabidopsis thaliana (Mouse-ear cress)), O04197 (parent)
chain: B1 chain

Data on four variants can be found in IntAct's records for PubMed 12445118.

Variants of B1 are the subject of the first assay. As to conditions: with hda6_arath HDA6, Q9FML2.
In the case of MEDPDIKRCKLSCVATVDDVIEQVMTYITDPKDRDSASLVCRRWFKIDSETREHVTMALCYTATPDRLSRRFPNLRSLKLKGKPRAAMFNLIPENWGGYVTPWVTEISNNLRQLKSVHFRRMIVSDLDLDRLAKARADDLETLKLDKCSGFTTDGLLSIVTHCRKIKTLLMEESSFSEKDGKWLHELAQHNTSLEVLNFYMTEFAKISPKDLETIARNCRSLVSVKVGDFEILELVGFFKAAANFEEFCGGSLNEDIGMPEKYMNLVFPRKLCRLGLSYMGPNEMPILFPFAAQIRKLDLLYALLETEDHCTLIQKCPNLEVLETRNVIGDRGLEVLAQYCKQLKRLRIERGADEQGMEDEEGLVSQRGLIALAQGCQELEYMAVYVSDITNESLESIGTYLKNLCDFRLVLLDREERITDLPLDNGVRSLLIGCKKLRRFAFYLRQGGLTDLGLSYIGQYSPNVRWMLLGYVGESDEGLMEFSRGCPNLQKLEMRGCCFSERAIAAAVTKLPSLRYLWVQGYRASMTGQDLMQMARPYWNIELIPSRRVPEVNQQGEIREMEHPAHILAYYSLAGQRTDCPTTVRVLKEPI [L245F], the “effect of a mutation on the interaction” value was “decreasing interaction”.
Same read-out and setting: for MEDPDIKRCKLSCVATVDDVIEQVMTYITDPKDRDSASLVCRRAFKIDSETREHVTMALCYTATPDRLSRRFPNLRSLKLKGKPRAAMFNLIPENWGGYVTPWVTEISNNLRQLKSVHFRRMIVSDLDLDRLAKARADDLETLKLDKCSGFTTDGLLSIVTHCRKIKTLLMEESSFSEKDGKWLHELAQHNTSLEVLNFYMTEFAKISPKDLETIARNCRSLVSVKVGDFEILELVGFFKAAANLEEFCGGSLNEDIGMPEKYMNLVFPRKLCRLGLSYMGPNEMPILFPFAAQIRKLDLLYALLETEDHCTLIQKCPNLEVLETRNVIGDRGLEVLAQYCKQLKRLRIERGADEQGMEDEEGLVSQRGLIALAQGCQELEYMAVYVSDITNESLESIGTYLKNLCDFRLVLLDREERITDLPLDNGVRSLLIGCKKLRRFAFYLRQGGLTDLGLSYIGQYSPNVRWMLLGYVGESDEGLMEFSRGCPNLQKLEMRGCCFSERAIAAAVTKLPSLRYLWVQGYRASMTGQDLMQMARPYWNIELIPSRRVPEVNQQGEIREMEHPAHILAYYSLAGQRTDCPTTVRVLKEPI [W44A] the value was “decreasing interaction”.

Another assay covers variants of B2. As to conditions: with rbs3b_arath RBCS-3B.
Consider MEDPDIKRCKLSCVATVDDVIEQVMTYITDPKDRDSASLVCRRWFKIDSETREHVTMALCYTATPDRLSRRFPNLRSLKLKGKPRAAMFNLIPENWGGYVTPWVTEISNNLRQLKSVHFRRMIVSDLDLDRLAKARADDLETLKLDKCSGFTTDGLLSIVTHCRKIKTLLMEESSFSEKDGKWLHELAQHNTSLEVLNFYMTEFAKISPKDLETIARNCRSLVSVKVGDFEILELVGFFKAAANFEEFCGGSLNEDIGMPEKYMNLVFPRKLCRLGLSYMGPNEMPILFPFAAQIRKLDLLYALLETEDHCTLIQKCPNLEVLETRNVIGDRGLEVLAQYCKQLKRLRIERGADEQGMEDEEGLVSQRGLIALAQGCQELEYMAVYVSDITNESLESIGTYLKNLCDFRLVLLDREERITDLPLDNGVRSLLIGCKKLRRFAFYLRQGGLTDLGLSYIGQYSPNVRWMLLGYVGESDEGLMEFSRGCPNLQKLEMRGCCFSERAIAAAVTKLPSLRYLWVQGYRASMTGQDLMQMARPYWNIELIPSRRVPEVNQQGEIREMEHPAHILAYYSLAGQRTDCPTTVRVLKEPI [L245F], for which the “effect of a mutation on the interaction” value is “decreasing interaction”.
Consider MEDPDIKRCKLSCVATVDDVIEQVMTYITDPKDRDSASLVCRRAFKIDSETREHVTMALCYTATPDRLSRRFPNLRSLKLKGKPRAAMFNLIPENWGGYVTPWVTEISNNLRQLKSVHFRRMIVSDLDLDRLAKARADDLETLKLDKCSGFTTDGLLSIVTHCRKIKTLLMEESSFSEKDGKWLHELAQHNTSLEVLNFYMTEFAKISPKDLETIARNCRSLVSVKVGDFEILELVGFFKAAANLEEFCGGSLNEDIGMPEKYMNLVFPRKLCRLGLSYMGPNEMPILFPFAAQIRKLDLLYALLETEDHCTLIQKCPNLEVLETRNVIGDRGLEVLAQYCKQLKRLRIERGADEQGMEDEEGLVSQRGLIALAQGCQELEYMAVYVSDITNESLESIGTYLKNLCDFRLVLLDREERITDLPLDNGVRSLLIGCKKLRRFAFYLRQGGLTDLGLSYIGQYSPNVRWMLLGYVGESDEGLMEFSRGCPNLQKLEMRGCCFSERAIAAAVTKLPSLRYLWVQGYRASMTGQDLMQMARPYWNIELIPSRRVPEVNQQGEIREMEHPAHILAYYSLAGQRTDCPTTVRVLKEPI [W44A], for which the “effect of a mutation on the interaction” value is on record as “decreasing interaction”.

Variants of B2 are the subject of a further assay. As to conditions: with skp1a_arath SKP1A.
MEDPDIKRCKLSCVATVDDVIEQVMTYITDPKDRDSASLVCRRAFKIDSETREHVTMALCYTATPDRLSRRFPNLRSLKLKGKPRAAMFNLIPENWGGYVTPWVTEISNNLRQLKSVHFRRMIVSDLDLDRLAKARADDLETLKLDKCSGFTTDGLLSIVTHCRKIKTLLMEESSFSEKDGKWLHELAQHNTSLEVLNFYMTEFAKISPKDLETIARNCRSLVSVKVGDFEILELVGFFKAAANLEEFCGGSLNEDIGMPEKYMNLVFPRKLCRLGLSYMGPNEMPILFPFAAQIRKLDLLYALLETEDHCTLIQKCPNLEVLETRNVIGDRGLEVLAQYCKQLKRLRIERGADEQGMEDEEGLVSQRGLIALAQGCQELEYMAVYVSDITNESLESIGTYLKNLCDFRLVLLDREERITDLPLDNGVRSLLIGCKKLRRFAFYLRQGGLTDLGLSYIGQYSPNVRWMLLGYVGESDEGLMEFSRGCPNLQKLEMRGCCFSERAIAAAVTKLPSLRYLWVQGYRASMTGQDLMQMARPYWNIELIPSRRVPEVNQQGEIREMEHPAHILAYYSLAGQRTDCPTTVRVLKEPI [W44A]: the “effect of a mutation on the interaction” value is on record as “decreasing interaction”.

The variants in the next assay derive from B2. As to conditions: with skp1b_arath SKP1B.
Turning to MEDPDIKRCKLSCVATVDDVIEQVMTYITDPKDRDSASLVCRRAFKIDSETREHVTMALCYTATPDRLSRRFPNLRSLKLKGKPRAAMFNLIPENWGGYVTPWVTEISNNLRQLKSVHFRRMIVSDLDLDRLAKARADDLETLKLDKCSGFTTDGLLSIVTHCRKIKTLLMEESSFSEKDGKWLHELAQHNTSLEVLNFYMTEFAKISPKDLETIARNCRSLVSVKVGDFEILELVGFFKAAANLEEFCGGSLNEDIGMPEKYMNLVFPRKLCRLGLSYMGPNEMPILFPFAAQIRKLDLLYALLETEDHCTLIQKCPNLEVLETRNVIGDRGLEVLAQYCKQLKRLRIERGADEQGMEDEEGLVSQRGLIALAQGCQELEYMAVYVSDITNESLESIGTYLKNLCDFRLVLLDREERITDLPLDNGVRSLLIGCKKLRRFAFYLRQGGLTDLGLSYIGQYSPNVRWMLLGYVGESDEGLMEFSRGCPNLQKLEMRGCCFSERAIAAAVTKLPSLRYLWVQGYRASMTGQDLMQMARPYWNIELIPSRRVPEVNQQGEIREMEHPAHILAYYSLAGQRTDCPTTVRVLKEPI [W44A], the “effect of a mutation on the interaction” value is “decreasing interaction”.
